Measurements as given in CN110974958A (BEIJING DONGFANG BIOTECH CO LTD, dated 2020).

Experiments:
PD-L1-Fc = target: T1, PD-L1-Fc (UniProt Q9NZQ7 19-238, limits assumed); experiment: competition ELISA, PD-L1-Fc coated 200 ng/well, competitor PD-1-His 5 ug/ml, anti-His-HRP
T1 construct: not shown: Fc part

PD-L1 [1] = target: T2, PD-L1 (UniProt Q9NZQ7 19-238, limits assumed); experiment: cell-based or functional assay
PD-L1 [2] = target: T2, PD-L1; experiment: ELISA, PD-L1 coated 100 ng/well, full antibody titrated from 1 ug/ml, Anti-Human Fc-HRP

T2 sequence (Q9NZQ7 19-238 limits assumed): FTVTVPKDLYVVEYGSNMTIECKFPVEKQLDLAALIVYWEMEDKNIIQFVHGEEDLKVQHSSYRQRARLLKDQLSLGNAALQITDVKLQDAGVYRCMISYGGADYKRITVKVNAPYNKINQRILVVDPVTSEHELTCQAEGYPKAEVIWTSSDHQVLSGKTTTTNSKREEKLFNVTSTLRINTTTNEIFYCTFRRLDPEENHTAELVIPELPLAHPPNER
T1 sequence (Q9NZQ7 19-238 limits assumed): as above

| IC50 (PD-L1-Fc) | EC50(ng/ml), 混合淋巴细胞反应(MLR), CD4+ T细胞增殖 (cck8) (PD-L1 [1]) | EC50 (PD-L1 [2]) | Binder |
| --- | --- | --- | --- |
| 136 ng/mL | 11.4 ng/mL | 1.91 ng/mL | AH10-E3 全抗体 (full antibody, human IgG1/kappa) (antibody, V domains shown, Full antibody expressed in HEK293E from vector pTSE) VH: EVQLVESGGGLVQPGGSLRLSCAASGWTLSDSLQHWVRQAPGKGLEWVGFQSAYGGSTYYADSVKGRFTISADTSKNTAYLQMNSLRAEDTAVYYCARRHYYTAWDYWGQGTLVTVSS VL: DIQMTQSPSSLSASVGDRVTITCRASQSIHNYLAWYQQKPGKAPKLLIYSASNLPSGVPSRFSGSGSGTDFTLTISSLQPEDFATYYCQQGLHTPPTFGQGTKVEIKR |
| 92.7 ng/mL | 7.71 ng/mL | 1.23 ng/mL | BH2-E3 全抗体 (full antibody, human IgG1/kappa) (antibody, V domains shown, Full antibody expressed in HEK293E from vector pTSE) VH: EVQLVESGGGLVQPGGSLRLSCAASGLTWSDSYKHWVRQAPGKGLEWVHWNSTYGGSTYYADSVKGRFTISADTSKNTAYLQMNSLRAEDTAVYYCARRHFASTWDYWGQGTLVTVSS VL: DIQMTQSPSSLSASVGDRVTITCRASQSIHNYLAWYQQKPGKAPKLLIYSASNLPSGVPSRFSGSGSGTDFTLTISSLQPEDFATYYCQQGLHTPPTFGQGTKVEIKR |
| 108 ng/mL | 9.88 ng/mL | 1.43 ng/mL | AH10-B11 全抗体 (full antibody, human IgG1/kappa) (antibody, V domains shown, Full antibody expressed in HEK293E from vector pTSE; also called AH10-811) VH: EVQLVESGGGLVQPGGSLRLSCAASGWTLSDSLQHWVRQAPGKGLEWVGFQSAYGGSTYYADSVKGRFTISADTSKNTAYLQMNSLRAEDTAVYYCARRHYYTAWDYWGQGTLVTVSS VL: DIQMTQSPSSLSASVGDRVTITCRASQNIHNSLAWYQQKPGKAPKLLIYGASSLESGVPSRFSGSGSGTDFTLTISSLQPEDFATYYCQQERRVPWTFGQGTKVEIKR |

The next lines start with the binder.

| Binder | IC50 (PD-L1-Fc) | EC50(ng/ml), 混合淋巴细胞反应(MLR), CD4+ T细胞增殖 (cck8) (PD-L1 [1]) | EC50 (PD-L1 [2]) |
| --- | --- | --- | --- |
| BH2-B11 全抗体 (full antibody, human IgG1/kappa) (antibody, V domains shown, Full antibody expressed in HEK293E from vector pTSE) VH: EVQLVESGGGLVQPGGSLRLSCAASGLTWSDSYKHWVRQAPGKGLEWVHWNSTYGGSTYYADSVKGRFTISADTSKNTAYLQMNSLRAEDTAVYYCARRHFASTWDYWGQGTLVTVSS VL: DIQMTQSPSSLSASVGDRVTITCRASQNIHNSLAWYQQKPGKAPKLLIYGASSLESGVPSRFSGSGSGTDFTLTISSLQPEDFATYYCQQERRVPWTFGQGTKVEIKR | 61.2 ng/mL | 6.73 ng/mL | 0.535 ng/mL |
| AC9-E3 全抗体 (full antibody, human IgG1/kappa) (antibody, V domains shown, Full antibody expressed in HEK293E from vector pTSE) VH: EVQLVESGGGLVQPGGSLRLSCAASGCTWSDSWDHWVRQAPGKGLEWVDYESTYGGSTYYADSVKGRFTISADTSKNTAYLQMNSLRAEDTAVYYCARRHWNATFDYWGQGTLVTVSS VL: DIQMTQSPSSLSASVGDRVTITCRASQSIHNYLAWYQQKPGKAPKLLIYSASNLPSGVPSRFSGSGSGTDFTLTISSLQPEDFATYYCQQGLHTPPTFGQGTKVEIKR | 138 ng/mL | 11.9 ng/mL | 2.17 ng/mL |
| AC9-B11 全抗体 (full antibody, human IgG1/kappa) (antibody, V domains shown, Full antibody expressed in HEK293E from vector pTSE) VH: EVQLVESGGGLVQPGGSLRLSCAASGCTWSDSWDHWVRQAPGKGLEWVDYESTYGGSTYYADSVKGRFTISADTSKNTAYLQMNSLRAEDTAVYYCARRHWNATFDYWGQGTLVTVSS VL: DIQMTQSPSSLSASVGDRVTITCRASQNIHNSLAWYQQKPGKAPKLLIYGASSLESGVPSRFSGSGSGTDFTLTISSLQPEDFATYYCQQERRVPWTFGQGTKVEIKR | 82 ng/mL | 7.58 ng/mL | 0.574 ng/mL |
